According to PMC11524475:

Biological target: NbNRC2-6xHis-3xFLAG, affinity-purified from N. benthamiana leaves (Nicotiana benthamiana)
Assay: SEC; purified NbNRC2-6xHis-3xFLAG on Superdex 200 Increase 10/300 GL, 25 mM Tris-HCl pH 8, 500 mM NaCl, 5% glycerol, 1 mM EDTA, 4°C; size estimated from a protein standard curve

- stoichiometry N: 2
Substance: NbNRC2-6xHis-3xFLAG, affinity-purified from N. benthamiana leaves (natural protein)
